Assay results reported in patent US6942981.

Target: GST-DLG1 PDZ domains 1-2 fusion protein (human) (UniProt Q12959)
Assay: variant of the G assay; 100 uM unlabeled 8-mer with 20 uM biotin-labeled AA2L on immobilized GST-DLG1

“CLASP-2 C-terminal 8-mer peptide MTSSSSVV (unlabeled)” was tested, and the percent inhibition of labeled AA2L CLASP-2 peptide binding was > 50%.
